Publication PMC3959856

Target: SpyTag-MBP (Streptococcus pyogenes)
Test: covalent adduct formation by SDS-PAGE densitometry

full-length SpyCatcher (as used in the reaction assay of Fig. 4b) (domain or fragment)
percent covalent complex formation after 1 min: 40%
percent covalent complex formation after 10 min: 65%
